Results published in doi:10.1101/2025.02.27.640518.

Target: nCBP-2^L51F (yeast two-hybrid fusion) (cassava)
Test: two-hybrid

For “CBSV Naliendele VPg fused to the B42 transcriptional activation domain (natural protein)”, the fold less reporter activity than with nCBP-2 was 8 fold.
